# Results reported in patent US20120184488A1, “INSULIN ANALOGUES OF ENHANCED RECEPTOR-BINDING SPECIFICITY” (CASE WESTERN RESERVE UNIVERSITY, priority 2009, published 2012).
# What was measured:
# [1] = target: insulin receptor, isoform B (human) (UniProt P06213); assay: competitive displacement, antibody-capture microtiter plate, IR isoform B
# [2] = target: Type I insulin-like growth factor receptor (UniProt P08069); assay: competitive displacement of 125I-IGF-1, antibody-capture microtiter plate, IGFR
# [3] = target: insulin receptor, isoform B (human) (UniProt P06213); assay: competitive displacement of 125I-insulin, antibody-capture microtiter plate, IR isoform B
# [4] = target: IR (Homo sapiens, UniProt P06213); conditions: relative to human insulin; cited from earlier work
# Chain of Ala^A4-His^A8-DKP-insulin (ligand) (chain): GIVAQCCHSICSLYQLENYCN
# Chain of Ala^A4-His^A8-DKP-insulin (ligand) (chain): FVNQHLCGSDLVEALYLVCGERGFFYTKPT
# Chain of His^A4-His^A8-His^B1-insulin (ligand) (chain): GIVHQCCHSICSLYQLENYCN
# Chain of His^A4-His^A8-His^B1-insulin (ligand) (chain): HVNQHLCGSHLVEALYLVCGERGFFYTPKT
substance,measurement,setting,value
Ala^A4-His^A8-DKP-insulin (ligand),relative affinity for IR (percent of human insulin),[1],384%
Dab^A8-insulin (ligand),relative affinity for IGFR (percent of IGF-I),[2],0.13%
same,relative affinity for IR (percent of human insulin),[3],91%
His^A4-His^A8-His^B1-insulin (ligand),relative affinity for IR (percent of human insulin),[1],125%
insulin Detemir®,affinity for IR / receptor binding,[4],decreased affinity
